Results taken from PMC8482623.

Substrate: Nc1ncnc2c1ncn2[C@@H]1O[C@H](COP(=O)(O)OP(=O)(O)OP(=O)(O)O)[C@@H](O)[C@H]1O
Test: purified protein
Conditions: 50 mM Tris-HCl pH 8.0, 20 mM MgCl2, 1 mM EDTA, 37 °C

B1: mBcs1 (full-length mouse Bcs1; mBcs1-His) (Mus musculus) (protein)
chain: MPFSDFVLALKDNPYFGAGFGLVGVGTALAMARKGAQLGLVAFRRHYMITLEVPARDRSYAWLLSWLTRHSTRTQHLSVETSYLQHESGRISTKFEFIPSPGNHFIWYQGKWIRVERNRDMQMVDLQTGTPWESVTFTALGTDRKVFFNILEEARALALQQEEGKTVMYTAVGSEWRTFGYPRRRRPLDSVVLQQGLADRIVKDIREFIDNPKWYIDRGIPYRRGYLLYGPPGCGKSSFITALAGELEHSICLLSLTDSSLSDDRLNHLLSVAPQQSLVLLEDVDAAFLSRDLAVENPIKYQGLGRLTFSGLLNALDGVASTEARIVFMTTNYIDRLDPALIRPGRVDLKEYVGYCSHWQLTQMFQRFYPGQAPSLAENFAEHVLKATSEISPAQVQGYFMLYKNDPMGAVHNIESLR
  Km: 40 µM
